Literature values, collected in patent publication US20240158457A1, “INTERLEUKIN-18 RECEPTOR BINDING POLYPEPTIDES AND USES THEREOF” (Medikine, Inc., priority 2022, published 2024).

Molecular target: T1, IL-18 (Homo sapiens, UniProt Q14116)
T1 sequence (Q14116 37-193): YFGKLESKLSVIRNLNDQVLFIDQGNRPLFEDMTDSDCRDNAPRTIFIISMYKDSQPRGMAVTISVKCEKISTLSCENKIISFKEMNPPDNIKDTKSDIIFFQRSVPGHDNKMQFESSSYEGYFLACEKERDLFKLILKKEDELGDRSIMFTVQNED
Conditions: background; read-out: affinity for IL-18

B1: IL-18BP: IL-18 binding protein, decoy receptor; IL-18BP Fc fusion (Acro #ILP-H5253) (protein)
chain: TPVSQTTTAATASVRSTKDPCPSQPPVFPAAKQCPALEVTWPEVEVPLNGTLSLSCVACSRFPNFSILYWLGNGSFIEHLPGRLWEGSTSRERGSTGTQLCKALVLEQLTPALHSTNFSCVLVDPEQVVQRHVVLAQLWAGLRATLPPTQEALPSSHSSPQQQG
modifications: left off: a dimerising Fc or GST
In the case of B1, the Kd is listed as roughly 0.4 nM.
